The text below walks through data of US10654939 (BEIJING MABWORKS BIOTECH, dated 2020).

Changes are numbered by the printed parent chain. Read-outs that look alike come from different tables or passages of the source.

Test [1] addresses T1, mouse CD40 expressed on HEK293A cells (mouse, UniProt P27512 20-289).
T1 construct: also called HEK293A/mouseCD40
The test can be described thus: FACS, HEK293A/mouseCD40 cells.

Test [2] addresses T2, recombinant human CD40 (ECD)-his (human, UniProt P25942 21-193).
T2 construct: Bought protein; also called hCD40(ECD)-his; TNFRSF5
The test can be described thus: SPR (Biacore 8K), hCD40(ECD)-his coupled to chip, antibody injected. As for the experimental part: SPR assays were used to determine the binding affinity of the chimetic or humanized anti-CD40 antibodies to human CD40 with the BIAcore™ 8K instrument (GE Life Sciences). Briefly, 100-200 response units (RU) of human CD40 (ECD)-his protein (Sino Biological, CN, Cat #: 10774-H08H) were coupled to CM5 biosensor chips (Cat #: BR-1005-30, GE Life Sciences), followed by blocking of un-reacted groups with 1M ethanolamine. Serially diluted antibodies at concentrations ranging from […] were injected into the SPR running buffer (HBS-EP buffer, pH7.4, GE Life Sciences; US; Cat #: BR-1006-69) at 30 μL/minute. The binding capacity was calculated with the RUs of blank controls subtracted. The association rate (k_a) and dissociation rate (k_d) were calculated using the one-to-one Langmuir binding model (BIA Evaluation Software, GE Life Sciences). The equilibrium dissociation constant K_D was calculated as the k_d/k_a ratio.

Test [3] concerns the target T3, CD40 ECD Mutant 1 (amino acid 21-193, R7A/E8A) with mFc-tag (human).
T3 construct: Signal peptide left out
Description: ELISA on recombinant CD40 ECD proteins with mFc tag (Example 16); antibody concentration not given.

Test [4] concerns the target T4, CD40 ECD Truncant 3 (amino acid 145-193) with mFc-tag (human).
T4 construct: mFc-tag at the C terminus; also called CRD4
The description is as above.

Test [5] has as its target T5, CD40 ECD Truncant 1 (amino acid 61-193) with mFc-tag (human).
T5 construct: mFc-tag at the C terminus; also called CRD2/3/4
Described as above.

Test [6] concerns the target T6, CD40 ECD Truncant 4 (amino acid 38-193) with mFc-tag (human).
T6 construct: Truncated CRD1; mFc-tag at the C terminus; also called CRD delta1/2/3/4
Described as above.

Test [7] deals with T7, CD40 ECD Truncant 5 (amino acid 21-37 & 61-193) with mFc-tag (human).
T7 construct: Truncated CRD1; mFc-tag at the C terminus; also called CRD delta1/2/3/4
Described as above.

Test [8] addresses T8, CD40 ECD Truncant 2 (amino acid 104-193) with mFc-tag (human).
T8 construct: mFc-tag at the C terminus; also called CRD3/4
The test is described as above.

Test [9] deals with Full-length CD40 ECD (amino acid 21-193, human CD40) with mFc-tag (human). The description is as above.
Test [10] deals with T9, rhesus CD40 expressed on HEK293A cells (rhesus monkey, UniProt P25942 21-277 (human entry)).
T9 construct: also called HEK293A/rhesusCD40
T9 chain: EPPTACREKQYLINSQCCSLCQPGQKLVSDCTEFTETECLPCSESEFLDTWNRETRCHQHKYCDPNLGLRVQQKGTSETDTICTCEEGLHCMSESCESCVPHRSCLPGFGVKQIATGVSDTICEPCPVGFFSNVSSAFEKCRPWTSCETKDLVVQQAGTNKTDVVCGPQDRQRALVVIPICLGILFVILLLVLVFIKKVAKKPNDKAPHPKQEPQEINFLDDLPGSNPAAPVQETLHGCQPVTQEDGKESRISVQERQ
Description: FACS on HEK293A/rhesus CD40 cells, serially diluted antibody (Example 14, protocol of Example 5). As for the experimental part:
Example 5 Mouse Anti-CD40 Monoclonal Antibodies Bound to Human and Rhesus CD40 Expressed on HEK293A Cells To further determine whether anti-CD40 antibodies bound to human, monkey or mouse CD40 expressed on HEK293A cells, a cell-based binding assay by FACS was performed using the HEK293A cells stably overexpressing human, monkey or mouse CD40 as generated in Example 1, respectively. Briefly, 10^5 HEK293A cells were seeded into each well of the 96-well plates and serially diluted anti-CD40 antibodies were added to the plates. After incubated at 4° C. for 1 hour, plates were washed 3 times with PBST. Then, an APC coupled Goat Anti-Mouse IgG (BioLegen, US, Cat #: 405308) diluted 500× was added to the plates. After incubation at 4° C. for 1 hour, the plates were washed with PBS for 3 times and then cell fluorescence was monitored using a FACS machine (BD).
The chimeric and humanized anti-CD40 antibodies were further characterized for their ability of binding to HEK293A/humanCD40 cells and HEK293A/rhesus CD40 cells, following the protocols described in Example 5. They were also tested for their ability to activate CD40 signaling in HEK-Blue assay, and to promote dendritic cell maturation, following the protocols in Example 7 and Example 9, respectively, the dendritic cells collected form three healthy human donors. IL-12(p40) secretion by the dendritic cells was measured by using human IL12(p40) ELISA kit (BD, US, Cat #: 551116) following themanufactor's instruction.

The target of test [11] is T2, recombinant human CD40 (ECD)-his. The test can be described thus: ELISA on coated recombinant TNFRSF proteins, serially diluted antibody (Example 17).
Test [12] has the same target. Described as above. This is another data set of the same source.

T8 sequence (chain, as listed by the source limits assumed): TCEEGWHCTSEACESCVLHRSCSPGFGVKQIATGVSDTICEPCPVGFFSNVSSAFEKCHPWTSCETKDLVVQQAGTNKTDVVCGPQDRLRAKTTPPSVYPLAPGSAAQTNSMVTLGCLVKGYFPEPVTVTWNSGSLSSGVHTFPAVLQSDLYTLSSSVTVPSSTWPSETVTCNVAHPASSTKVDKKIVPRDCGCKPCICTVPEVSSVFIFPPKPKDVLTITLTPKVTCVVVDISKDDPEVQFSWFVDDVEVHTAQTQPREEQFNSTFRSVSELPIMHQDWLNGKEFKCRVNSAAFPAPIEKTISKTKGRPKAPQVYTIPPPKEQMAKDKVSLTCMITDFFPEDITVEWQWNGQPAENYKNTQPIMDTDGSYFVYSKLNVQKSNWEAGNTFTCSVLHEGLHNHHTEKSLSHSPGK
T3 sequence (chain, as listed by the source limits assumed, stated change not applied): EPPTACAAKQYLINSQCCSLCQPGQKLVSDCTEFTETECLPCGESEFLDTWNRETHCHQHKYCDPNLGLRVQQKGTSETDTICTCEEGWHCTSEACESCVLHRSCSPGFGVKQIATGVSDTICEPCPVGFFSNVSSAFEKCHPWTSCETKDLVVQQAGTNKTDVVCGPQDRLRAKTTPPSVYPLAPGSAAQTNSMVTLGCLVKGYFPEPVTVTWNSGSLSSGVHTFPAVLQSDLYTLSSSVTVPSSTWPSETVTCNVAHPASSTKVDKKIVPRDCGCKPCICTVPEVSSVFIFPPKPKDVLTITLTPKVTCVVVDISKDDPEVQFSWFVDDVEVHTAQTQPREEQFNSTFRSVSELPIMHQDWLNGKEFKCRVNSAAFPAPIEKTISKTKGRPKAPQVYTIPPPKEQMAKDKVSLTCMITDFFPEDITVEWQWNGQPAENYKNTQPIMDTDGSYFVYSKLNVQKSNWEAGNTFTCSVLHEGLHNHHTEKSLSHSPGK
T5 sequence (chain, as listed by the source limits assumed): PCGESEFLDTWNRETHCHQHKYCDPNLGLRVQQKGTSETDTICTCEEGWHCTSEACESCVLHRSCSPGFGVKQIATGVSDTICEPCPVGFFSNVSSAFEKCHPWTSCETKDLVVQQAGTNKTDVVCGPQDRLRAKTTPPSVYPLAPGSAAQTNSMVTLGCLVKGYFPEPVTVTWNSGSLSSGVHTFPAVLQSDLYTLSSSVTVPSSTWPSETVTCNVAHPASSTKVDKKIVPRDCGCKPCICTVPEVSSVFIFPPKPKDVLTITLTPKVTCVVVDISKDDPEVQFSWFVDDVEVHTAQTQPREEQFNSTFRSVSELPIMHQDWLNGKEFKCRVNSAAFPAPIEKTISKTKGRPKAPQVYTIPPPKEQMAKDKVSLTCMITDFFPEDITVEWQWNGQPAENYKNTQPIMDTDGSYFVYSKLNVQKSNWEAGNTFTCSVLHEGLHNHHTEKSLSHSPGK
T7 sequence (chain, as listed by the source limits assumed): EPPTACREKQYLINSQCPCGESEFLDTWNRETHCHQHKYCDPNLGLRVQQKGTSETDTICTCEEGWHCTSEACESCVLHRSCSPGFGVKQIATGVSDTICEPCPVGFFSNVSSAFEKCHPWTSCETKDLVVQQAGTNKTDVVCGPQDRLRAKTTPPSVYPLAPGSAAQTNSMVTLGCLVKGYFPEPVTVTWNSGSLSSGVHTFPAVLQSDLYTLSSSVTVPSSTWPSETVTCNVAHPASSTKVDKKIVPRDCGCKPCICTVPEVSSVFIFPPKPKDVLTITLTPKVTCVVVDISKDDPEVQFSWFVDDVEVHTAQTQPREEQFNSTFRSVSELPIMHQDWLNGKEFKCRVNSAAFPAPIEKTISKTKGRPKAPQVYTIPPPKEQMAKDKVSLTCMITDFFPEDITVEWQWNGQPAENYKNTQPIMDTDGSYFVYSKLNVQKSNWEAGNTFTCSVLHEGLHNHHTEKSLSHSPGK
T4 sequence (chain, as listed by the source limits assumed): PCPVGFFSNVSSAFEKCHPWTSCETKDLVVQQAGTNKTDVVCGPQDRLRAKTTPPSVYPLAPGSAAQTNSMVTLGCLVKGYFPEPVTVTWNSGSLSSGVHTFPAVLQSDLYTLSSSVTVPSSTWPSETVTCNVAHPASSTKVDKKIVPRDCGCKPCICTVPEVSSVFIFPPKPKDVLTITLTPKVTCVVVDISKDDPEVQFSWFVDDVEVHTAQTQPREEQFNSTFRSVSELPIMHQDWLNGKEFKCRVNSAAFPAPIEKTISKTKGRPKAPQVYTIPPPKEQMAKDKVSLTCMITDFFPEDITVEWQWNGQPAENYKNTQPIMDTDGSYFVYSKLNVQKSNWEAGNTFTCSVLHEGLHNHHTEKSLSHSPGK
T6 sequence (chain, as listed by the source limits assumed): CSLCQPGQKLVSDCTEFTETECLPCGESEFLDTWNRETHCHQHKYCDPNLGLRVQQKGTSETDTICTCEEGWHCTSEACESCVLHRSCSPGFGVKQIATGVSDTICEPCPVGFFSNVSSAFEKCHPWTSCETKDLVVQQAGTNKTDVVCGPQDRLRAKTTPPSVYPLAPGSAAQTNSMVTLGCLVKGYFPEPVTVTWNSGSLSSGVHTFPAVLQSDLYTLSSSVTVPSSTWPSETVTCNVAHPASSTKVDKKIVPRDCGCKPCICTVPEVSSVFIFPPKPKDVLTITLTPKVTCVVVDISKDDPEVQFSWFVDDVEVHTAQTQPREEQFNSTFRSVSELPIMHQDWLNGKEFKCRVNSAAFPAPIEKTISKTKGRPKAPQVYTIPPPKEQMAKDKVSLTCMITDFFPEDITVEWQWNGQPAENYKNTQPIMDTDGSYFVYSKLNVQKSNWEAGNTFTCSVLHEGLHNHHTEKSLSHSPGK
T1 sequence (P27512 20-289 limits assumed): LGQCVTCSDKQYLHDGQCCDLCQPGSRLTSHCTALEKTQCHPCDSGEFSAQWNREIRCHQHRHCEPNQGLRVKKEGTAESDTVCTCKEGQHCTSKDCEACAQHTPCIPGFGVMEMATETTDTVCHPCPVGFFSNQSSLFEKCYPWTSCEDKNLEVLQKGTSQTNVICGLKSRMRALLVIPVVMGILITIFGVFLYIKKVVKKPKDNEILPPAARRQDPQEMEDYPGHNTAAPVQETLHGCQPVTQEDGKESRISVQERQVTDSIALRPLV

B1: chimeric 13A2 antibody (antibody, human IgG2, kappa, V domains shown)
VH: EVKLEQSGPGLVKPSQSLSLTCSVTGYSITTNYYWNWIRQFPGNKLEWMGYINYDGSNNYNPSLKNRISITRDTSKNQFFLKLNSVTTEDTATYYCARLDYWGQGTSVTVSS
VL: DIVMTQSPLSLPVSLGDQASISCRSSQSLENSNGNTFLNWFLQKPGQSPQLLIYKVSNRFSGVLDRFSGTGSGTDFTLTISRVEAEDLGVYFCLQVTHVPFTFGSGTKLEIKR
notes: Mouse variable regions with human IgG2/kappa constant regions
Consider B1, for which the binding result in [1] is on record as “no binding”; in test [3], “binds”; in test [4], “no binding”; in test [5], “no binding”; in test [6], “no binding”; in [7], “no binding”. The binding result is on record as “no binding” in [8] and “binds” in test [9]. Further, the equilibrium dissociation constant (Kd) (in general, the constant that tells how readily two partners part at equilibrium) in test [2] was determined as 3.58 nM. In addition, the koff (as a rule, the first-order rate constant of dissociation) in test [2] is 0.00173 s⁻¹. The kon (commonly the second-order rate constant of association) in test [2] worked out at 484000 M⁻¹ s⁻¹.

B2: 13A2-VH3VL2 (antibody, human IgG2, kappa, V domains shown)
VH: QVQLQESGPGLVKPSDTLSLTCAVSGYSITTNYYWNWIRQPPGNKLEWMGYINYDGSNNYNPSLKNRITISVDTSKNQFSLKLSSVTAVDTAVYYCARLDYWGQGTLVTVSS
VL: DVVLTQSPLSLPVTLGQPASISCRSSQSLENSNGNTFLNWFQQRPGQSPRLLIYKVSNRFSGVPDRFSGSGSGTDFTLKISRVEAEDVGVYYCLQVTHVPFTFGQGTKLEIKR
notes: Humanized, human IgG2/kappa
For the molecule B2, the binding result in test [10] is given as “binds”; in test [3], “binds”; in test [4] it was “no binding”; in test [5] it was “no binding”; in test [6], “no binding”; in [7], “no binding”. Also, the binding result in test [8] is reported as “no binding”; in test [9] it was “binds”. For the same molecule, the Kd in test [2] came out at 2.93 nM. The koff in test [2] was 0.00242 s⁻¹. In test [2], the on-rate constant (kon) was 825000 M⁻¹ s⁻¹.

B3: 13A2-VH3VL3 (antibody, human IgG2, kappa, V domains shown)
VH: B2 VH
VL: B2 VL with Y92F, Q105S
notes: Humanized, human IgG2/kappa
For B3, the binding result in test [10] is recorded as “binds”; in [3] it was “binds”; in [4], “no binding”; in [5], “no binding”; in [6] it was “no binding”; in [7], “no binding”. The binding result is listed as “no binding” in [8] and “binds” in [9]. Besides, the Kd in test [2] worked out at 7.68 nM. Moreover, in test [2], the koff is 0.00459 s⁻¹. For the same molecule, the kon in [2] was found to be 598000 M⁻¹ s⁻¹. The EC50 (read off the curve) (usually the concentration that produces a half-maximal response) in test [11] is ~0.02 mg/L.

B4: 7B4-VH2VL2 (antibody, V domains shown)
VH: B2 VH with N44K, K45G, N53K
VL: B2 VL
notes: Humanized, human IgG2/kappa; also called 7B4H2L2
For B4, the concentration for a half-maximal effect (EC50 (read off the curve)) in test [12] was ~0.02 mg/L. For the same molecule, in [10], the “EC50 (read off the curve)” value was ~0.2 mg/L. In addition, in [2], the dissociation constant (Kd) was 2.91 nM, the koff amounted to 0.00581 s⁻¹ and the on-rate (kon) was found to be 2e+06 M⁻¹ s⁻¹.
